Test results published in patent publication EP2112164A1 (Institut Pasteur Of Shanghai, dated 2009).

How the values were obtained:
[1] = biological target: HIV-1 envelope Q168 (subtype A) (HIV-1 (subtype A)); experiment: cell-based or functional assay
[2] = biological target: HIV-1 envelope pDOL (subtype B) (HIV-1 (subtype B)); experiment: cell-based or functional assay

B1: scFv/hinge/his-tag/DAF (anti-HIV-1 gp41 scFv derived from human monoclonal antibody TG15, human IgG3 hinge region, 6 x his tag, GPI anchor replacement signal … (scFv)
scFv: QVQLQQWGAGLLKPSETLSLTCAVYGDSFGGHHWSWIRQPPGKGLEWIGEINFLGNTNYNPSLKSRVAISKDTSKNQFSLTLNSATAADTAVYFCARRETMETASRKRAFDIWGQGTMETVTVSAGGGGSGGGGSGGGGSAELMETTQSPPTLSASVGDRVTITCRASQSLSGWVAWYQQKPGKAPKLLIYKASTLESGVPSRFSGSGSGTVFALTISSLQPDDSATYYCQQHSAFSSTFGQGTKLEIKRTPLGDTTHTSGHHHHHHGSGTTSGTTRLLSGHTCFTLTGLLGTLVTMETGLLT
[1]
  relative luciferase activity (RLA) in a single-cycle pseudotype infectivity assay, CEMss-GPI-scFv compared to CEMss-eGFP: 180 fold reduction
[2]
  relative luciferase activity (RLA) in a single-cycle pseudotype infectivity assay, CEMss-GPI-scFv compared to CEMss-eGFP: 8 fold reduction
